The text below walks through data of patent publication US20130007923A1.

Assay [1] deals with BBMV proteins (brush border membrane vesicles) from fall armyworm (FAW; Spodoptera frugiperda) larval midgut (Spodoptera frugiperda). Put plainly: homologous competition: unlabeled Cry1Da against 0.5 nM 125I Cry1Da on FAW BBMVs.
For assay [2] the target is unchanged. Description: heterologous competition: unlabeled Cry1Ca against 0.5 nM 125I Cry1Da (competitor pair Cry1Da/BBMV) on FAW BBMVs; reflects no displacement at Cry1Da sites, not lack of Cry1Ca binding to BBMVs.

For orientation: IC50 means the concentration at which inhibition is half-maximal. Low readings indicate higher potency, high ones lower potency. For the substance “Cry1Da (purified truncated Cry toxin) (from UniProt P19415 28-594)”, the IC50 in assay [1] turned out to be 1.5 nM.
Regarding “Cry1Ca (purified truncated Cry toxin) (from UniProt P0A376 28-618)”, the IC50 in assay [2] is more than 1000 nM.
